In experiment [1] the target is RBD-6H (amino acid 340-538; NITN.GPKK), biotinylated (SARS-CoV-2) (UniProt P0DTC2).
Experiment [2] has as its target RBD (amino acids 340-538 NITN.GPKK) expressed on the surface of MDCK-SIAT1 cells (SARS-CoV-2) (UniProt P0DTC2).
For experiment [3], the target named is RBD-6H (amino acid 340-538; NITN.GPKK), biotinylated (SARS-CoV-2) (UniProt P0DTC2). This is another data set of the same source.

Read-outs that look alike come from different tables or passages of the source.

Take VHH72-Fc (Fc fusion): the values for the IC50 in experiment [1] and in experiment [2] were 0.262 µM and 0.033 µM, respectively.

Take H11-H4-Fc (Fc fusion): the figures for the IC50 in experiment [1] and in experiment [2] were 0.061 µM and 0.034 µM, respectively.

As for CR3022-Fc (antibody), in experiment [3], the IC50 was found to be 0.803 µM.

As usually defined, the IC50 is the concentration that gives 50% inhibition.

Source of the values: patent US20230348572A1.
